From the DeepSol protein solubility set

Test: soluble on expression in E. coli; label from the status in PepcDB or PDB records

Soluble on expression in E. coli, not soluble:
MGSDKIHHHHHHMEENYRRYPIGIQNFEQLRNRNCVYVDKTELVYRLANTDSVYFLSRPRRFGKSLLVSTLEAYFQGKKDLFKGLAMERLEKDWNVYPVFHIDFSLTKYTTLFDLQEQLNLFLLRCEKVYGAEKEEKTPAARLQGMIRRAYEQTGLPVVVLIDEYDAPLLDSNSNIPLQQELRNELRKFFSPLKGLGQYLRFLFITGISKFSQMSIFSELNNLKNISMRDDFSAICGITERELLDELRPDIERMALANGETYEAACAHLKRQYDGYHFSKHCEDIYNPFSLFNAFDAKEYKNFWFSTGTPTFLIDLLQETDFDVRQLEGVEATDEQFDAPTERVTSPIPVLYQSGYLTIKGYDPEFQVYRLAYPNGEVRKGFIESLLPAYLELPGQSSTFYVVSFIRDLRKGDIESCLERTRSFFASIPNDLENKTEKHYQTIFYLLFRLMGMYVDSEVKSAVGRADVVIKMQDAIYVLEFKYDGTAREALAQINSRLYAVPYRKDGRRIVKVGINFDSATRTIGDWVIEVEDTVDNL, MGSDKIHHHHHHMEFFSTRNKILSINPNGLRSTSIQLRERIWNVFYKEEYDYYDTLEYTSYTTGIEDMMLEMGIKYEFPANKIYKNQNAEKLHKHVVQCEGMWYRIYDFIEKYLRVTDSEKTQRLTIEFNRILEEEVAPYRILNGLVVPIIGKSELNSIGETIDLEYESVSKHMTKALELYSDRKKPDYENSVKESISSVESMCSIITGLSGGAATLGNTLKKLKENGVNIHPALENAFKQLYGYTSDSGGIRHGSIEFVNVASEDAKYMLVSCSAFVNYLTEKWIKYNLK, MGSDKIHHHHHHMEGKVDVLLTWLKKSDKFYIAPNISICESPETGRGIVLSHGSIRKNDIIVSVPSSKQLNFHTILYHISKFNKELNIPGITIDRKPINYEDNIIEAENKAWADPRYGLYSELSKEFLLSLSSFQLVSFYILVENFLLPKWTHNEIYSDWKPFFDVWPSMEELRSIPAIWNCDPNSRYHSLIEYLPAASRKHMARISGLVREDWETISEVVLKWNEIYGSLSCTKNSDKFTSDELFSLFVHVYFIINSRCLYAKIPLKIEDSPSNFTLVPYVDFMNHICESDLHCYPQLSPQLRSEGENIIGIGQFTIRCGDHLYDNINEELFLNYGAHSNDFLLNEYGFVVDGNKWNYLDISDEIIELIDDDKKEVKTFLLEHDYWGDYTINETDISYRIFVALNYYVTRDERRVRKFIEGYISEDYFKPKISSVLKELLVSLTAKYTKTLSELTEKVSNLENNLCLQNLITIYKGYIKILTQHLQDLQS, MGSDKIHHHHHHMEGNLKHNNGYCVICEKEATFIEHNDWLRDHYLCSTCHSIPRQRALIHVLNTFFPKWDSYHIHESSPGGITTQLLIKNCKNYTYSQYFKNYPLGQYFQGIRCENLENMTFQDESFDLFITQDVFEHVMEPNKAFKEIERVLKPGGAHVFTVPWYHTLPKTLQRARINEDGIEYIEEPIYHGNPIDENGSLVTFDWGQDMIEYIYTHANMYTLVYLQKDKSLGLDAEFLHVFISRKQENNF, MGSDKIHHHHHHMEIKILVDNTAKGKFLAQSGFSAIIKDEDSKILFDCGQNAHVFENNLKLMGEDDDFDAVIFSHGHYDHTDGFNYFIEKYGENLDVPIYIHKSAFVDRYHGERYIGIDENIKNFLKNYKNLKLIEDPFKISENLIISGTIPRTNFYERENFEMIENGQKVDDIIIDDMFVIVKDIIISGCTHSGLINCITHAKTLKEVNGIIGGFHMGTASENYINQVKNYLKTQNFRLVSPVHCTGFNATKELSDISGFKFGHVGSVFEI, MGSDKIHHHHHHMEISFTRVALLAAALFFVGCDQKPQPAKTHATEVTVLEGKTMGTFWRASIPGIDAKRSAELKEKIQTQLDADDQLLSTYKKDSALMRFNDSQSLSPWPVSEAMADIVTTSLRIGAKTDGAMDITVGPLVNLWGFGPEQQPVQIPSQEQIDAMKAKTGLQHLTVINQSHQQYLQKDLPDLYVDLSTVGEGYAADHLARLMEQEGISRYLVSVGGALNSRGMNGEGLPWRVAIQKPTDKENAVQAVVDINGHGISTSGSYRNYYELDGKRLSHVIDPQTGRPIEHNLVSVTVIAPTALEADAWDTGLMVLGPEKAKEVVRREGLAVYMITKEGDSFKTWMSPQFKSFLVSEKN, MGSDKIHHHHHHMEKGSIKILGEGFISSGEYENIKIVGSSKSKGNVKSNEVKVLGDAKFEGDINIKNFVVNGKTIIRGNLKAERVRVNGQLNIEGDAEIDDLVITAQQKVDGKLKCNNVTIRGQLSVNENMYAQDIKIYGEMRNKSNIECEDIKVYGVIKCDGLLNGENIYVYSGGGSYCKEIGATNIKIGRSKDAFSLIKIINIFSGKFKCNLIEGDTIELEDASIKDIRGKSISLVDNCDVGNIEYSDNLSVSDNSTVKNSIKVG, MGSDKIHHHHHHMEKIAVAENLRAYYFIKSGDKTTSIRAVDNVSLHFFENEVYGIAGESGCGKSTLLKVLFGEIKPPLKLVDGEVVFKLDGEEYRINSMSLDQLKKIRWKYVSYVPQGSMSVLNPVRKIRRIFLDVIEEHTSMSREEAFSRIESYFEALGLPVRVLDSYPHQLSGGMRQRVTIALATVLNPKVIFADEPTTALDVVVQRGVIQLLKKIHKEQKNTLVIVTHDMGVHAHLATRIGVMYAGRLIEEAETHEIFKNPLHPYTRFLINSLPRFGDRSRKEGTPGSPPSLANLPSGCPFHPRCPIADQICMEMEPDLIEVARNHKVACWKVGVER, MGSDKIHHHHHHMEKIVQTAGRNALGEFAPEFAHFNDDVLFGENWNNQDIDVKTRSIITVVALMASGITDSSLIYHLQNAKEHGVTQKEIAAVITHVAFYAGWPKAWAVFNLAKEVWEAGEGDLPYEEEAMRAHAKEMAFPIGAPNDGFAQYFSGRSFLAPISTSQIGIFNVTFEPGCRNNWHIHHAKSGGGQILVCVAGRGYYQEEGKEAVEMKPGDCINIPTGVKHWHGAAPDEWFSHLAIEVPGVDCSNEWCEAVSEKEYAGLR, MGSDKIHHHHHHMEKVKVKNPIVELDGDEMARVMWKMIKEKLILPYLDIQLVYFDLGIKKRDETDDQITIEAAKAIKKYGVGVKCATITPDAERVKEYNLKKAWKSPNATIRAYLDGTVFRKPIMVKNVPPLVKRWKKPIIIGRHAYGDIYNAVEAKVEGPAEVELVVRNKENKTLLVHKFEGNGVVMAMHNLEKSIRSFAQSCINYAISEKVDIWFATKDTISKVYHAYFKDIFQEEVDKRKEELEKAGVNYRYMLIDDAAAQILRSEGGMLWACMNYEGDIMSDMIASGFGSLGLMTSVLVSPDGVYEFEAAHGTVRRHYYRYLKGEKTSTNPTASIFAWTGAIRKRGELDGTPEVCEFADKLEKAVINTIESGVITKDLQPFTEPPIDKYVTLEEFIDEVKKNLEKLL, MGSDKIHHHHHHMENESKLVEVDEKHLQFRVAREAFVSEQILSGEYEKIFDRCWLYVGHVSEFSKPGDFVTRTIARRNLLVTMGTDNRINAFFNTCPHRGATVCRDRAGNSKNFQCFYHGWVFGCDGNLKSQPGKDRYCADFIASGAGNLVSVPRFDIYAGFCFVSFNAEVEPLPDYLAGAKEYLDLVSRYSESGMAISSGTQEYAIRANWKLLVENSVDGYHAVSTHATYLDYLKNTNGSLSSTKLEGTSYDLGNGHAVLEYTAPWGRPIASWVPLWGEQGKKEIDQIYARLVELHGEDMADRMAHKNRNLLIFPNLVVNDIMAITVRTFYPQAPNYMLVNGWSLAPREESEWAKKFRLSNFLEFLGPGGFATPDDVEALESCQNGFSNYRLVPWSDISKGMGKASPNYDDELQMRAFWTRWNQYISGSPSPQATIRRLPSATAA, MGSDKIHHHHHHMEPVYFTSPTRGRLTEDEMFADMMQFVDANPEAQYKIIIGSDSQARVRTCFVTAVIVHQVGRGARYYYRKKYQRKITSLRQKIFYETALSLETASFIAQRLAANGHADLNVEIHLDIGPNGETRDLIREIVGMVVGSGFAAKIKPYSCGASKVADKYTKSG, MGSDKIHHHHHHMERLCEQVRKVRRWLIDQPFDGILLSEQKNIAWLTGARAYVNLATERSIVFFLITESETVMYCSNIEKERLLAEEIGDTVGEIHVFPWYDPLLAESITQEQSKIGKVVLDREVESAFKAVRSALSPSQVAGYRQLGKLSAAAVEETALGLQRGETELEIAGRLANAAIKRGIEPVVNLVAVDDRVSAYRHPLPTDKRLDRYVMIVLSGRRNGQYISLTRLVHFGVIPIDLKKKHAAVCTIDSRLMHHTRVGQSMGDLFKEMKAAYATVGYLHEWKNHHQGGLTGYVGRERLLQPDAQELIQANEVYAWNPSITGTKSEDTILVTESGPEILTLGKKFPLMTVTVAGCTYERPDILGRNDG, MGSDKIHHHHHHMERTSDYWFMIEPYVHINIANGYMLLYNTLDKETIISNNEKVINLLEELLQDENCGVTILKNEQYRQNDIHSFITNLREKYMGDIIDISLSKGKPIQILPHTNFCNKRNEKYNFIKNANLLHFLNEIIIHLDHILDQDKLIDYLQSMPDNITYSISGDLKHIAKFDKLVDFLNQYNSSKKIICNYINFAIPASVCKNIFLYKIHIHFPIDIKQLIITTQSLKDQNNLFELIFDIASLDDYLKAWEIIEEYQIDKYQFNPIYTGYNIDFFKENVFLKKSDILSTSMSIKDFFIKQMINNNDFGKINIMPNGDVHSNINYPALGNICTHSIFELIQKEIEEGKSWLRVRNQEPCNACIYQWLCPSPSDYEIMIGQTNLCHVNIHNPNCENL, MGSDKIHHHHHHMESLSEGTTAGYQQIHDGIIHLVDSARTETVRSVNALMTATYQEIGRRIVEFEQGGEARAAYGAQLIKRLSKDLCLRYKRGFSAKNLRQMRLFYLFFQHVEIHQTMSGELTPLGIPQTPSAEFPSAKIWQTLSAKSFPLPRSTYVRLLSVKNADARSFYEKETLRCGWSVRQLERQIATQFYERTLLSHDKSAMLQQHAPAETHILPQQAIRDPFVLEFLELKDEYSESDFEEALINHLMDFMLELGDDFAFVGRQRRLRIDDNWFRVDLLFFHRRLRCLLIVDLKVGKFSYSDAGQMNMYLNYAKEHWTLPDENPPIGLVLCAEKGAGEAHYALAGLPNTVLASEYKMQLPDEKRLADELVRTQAVLEEGYRRR, MGSDKIHHHHHHMESQNVSFRVAREDLVTAVAWVARNLPTKPTQPVLRAMLITADDEGLELAGYDYDVSTRVRLSAEVSQPGRIAVAGKLLSEITGSLPNKPVDFRIDGSKAFVTCGSSRFELPLIPLDDYPMLPKLPAGTGSINAKLFTEAVSQVASAAGKDDSLPMLTGVSMEIVGNQINLAATDRFRLALRTFEWEANDPELNVKLLIPARTLLDNARSLDSGLNDSIDIAVGTGDQVGREGLFGVHTDNRETTTRLLDADFPNIAPLLPKEHTAIASVEIAPLVDAIRRVSLVAERNAQIVLHFSEGQVILTAGATEAGHAEETLPCAFTGKELTIAFNPGYLKDGLSVVPTSRAVFGFTEPSRPAIMIPEPEEMPSANENGIFQTPDTYFTYLLMPVRLPG, MGSDKIHHHHHHMETIHFTKVHGSQNDFFLVDEEENHITEWSDEKRANFAIKLCDRKHSLGGADGILYVTKSSEVGPIGQMRVVNSDGSIASMCGNGLRTVARYLLEKHALTDAKVETMKAILDVKKATSLGFDIPTYQVEISPVKFAAETLPMHVGVEKLFNQVIPELDAELAFSAVSVPNPHLITFVDQAVLDSNKQEKLASYLNSENPYFPDGVNVSFVKRLSDDAIYVRTFERGVGFTNACGTAMSACSLIKKMLDNNILETPLNVYNDGGRVQVTAKKDAAGEISLQLIGNATFVSKGSVRYENDIVTELTNEATAEQAQYQALVKEVKEFLKTTE
